The supplement of paper PMC11246515
± gives the standard deviation of the averaged measurements.

Experiment: total protein half-life in vivo (active degradation + dilution); higher = more stable protein
[1] = E. coli NCM3722 delta-clpP delta-lon delta-hslV, growth: N-lim chemostat, doubling time 6 h
[2] = E. coli NCM3722 delta-clpP, growth: N-lim chemostat, doubling time 6 h
[3] = E. coli NCM3722 delta-hslV, growth: N-lim chemostat, doubling time 6 h
[4] = E. coli NCM3722 delta-lon, growth: N-lim chemostat, doubling time 6 h
[5] = E. coli NCM3722 delta-smpB, growth: N-lim chemostat, doubling time 6 h
[6] = wild type E. coli NCM3722, growth: C-lim chemostat, doubling time 3 h
[7] = wild type E. coli NCM3722, growth: C-lim chemostat, doubling time 6 h
[8] = wild type E. coli NCM3722, growth: C-lim chemostat, doubling time 12 h
[9] = wild type E. coli NCM3722, growth: N-lim chemostat, doubling time 6 h
[10] = wild type E. coli NCM3722, growth: N-lim chemostat, doubling time 12 h
[11] = wild type E. coli NCM3722, growth: P-lim chemostat, doubling time 6 h
[12] = wild type E. coli NCM3722, growth: P-lim chemostat, doubling time 12 h

Sequence | total protein half-life in vivo [1] [h] | total protein half-life in vivo [2] [h] | total protein half-life in vivo [3] [h] | total protein half-life in vivo [4] [h] | total protein half-life in vivo [5] [h] | total protein half-life in vivo [6] [h] | total protein half-life in vivo [7] [h] | total protein half-life in vivo [8] [h] | total protein half-life in vivo [9] [h] | total protein half-life in vivo [10] [h] | total protein half-life in vivo [11] [h] | total protein half-life in vivo [12] [h]
MKNIIRTPETHPLTWRLRDDKQPVWLDEYRSKNGYEGARKALTGLSPDEIVNQVKDAGLKGRGGAGFSTGLKWSLMPKDESMNIRYLLCNADEMEPGTYKDRLLMEQLPHLLVEGMLISAFALKAYRGYIFLRGEYIEAAVNLRRAIAEATEAGLLGKNIMGTGFDFELFVHTGAGRYICGEETALINSLEGRRANPRSKPPFPATSGAWGKPTCVNNVETLCNVPAILANGVEWYQNISKSKDAGTKLMGFSGRVKNPGLWELPFGTTAREILEDYAGGMRDGLKFKAWQPGGAGTDFLTEAHLDLPMEFESIGKAGSRLGTALAMAVDHEINMVSLVRNLEEFFARESCGWCTPCRDGLPWSVKILRALERGEGQPGDIETLEQLCRFLGPGKTFCAHAPGAVEPLQSAIKYFREEFEAGIKQPFSNTHLINGIQPNLLKERW | 5.67 ± 0.18 | 5.27 ± 0.43 | 6.1 ± 0.97 | 5.74 ± 0.13 | 5.48 ± 0.17 | 2.73 ± 0.23 | 5.63 ± 0.092 | 9.99 ± 0.41 | 5.44 ± 0.24 | 9.884 ± 0.082 | 5.251 ± 0.0079 | 10.4 ± 0.9
MKNIRNFSIIAHIDHGKSTLSDRIIQICGGLSDREMEAQVLDSMDLERERGITIKAQSVTLDYKASDGETYQLNFIDTPGHVDFSYEVSRSLAACEGALLVVDAGQGVEAQTLANCYTAMEMDLEVVPVLNKIDLPAADPERVAEEIEDIVGIDATDAVRCSAKTGVGVQDVLERLVRDIPPPEGDPEGPLQALIIDSWFDNYLGVVSLIRIKNGTLRKGDKVKVMSTGQTYNADRLGIFTPKQVDRTELKCGEVGWLVCAIKDIHGAPVGDTLTLARNPAEKALPGFKKVKPQVYAGLFPVSSDDYEAFRDALGKLSLNDASLFYEPESSSALGFGFRCGFLGLLHMEIIQERLEREYDLDLITTAPTVVYEVETTSREVIYVDSPSKLPAVNNIYELREPIAECHMLLPQAYLGNVITLCVEKRGVQTNMVYHGNQVALTYEIPMAEVVLDFFDRLKSTSRGYASLDYNFKRFQASDMVRVDVLINGERVDALALITHRDNSQNRGRELVEKMKDLIPRQQFDIAIQAAIGTHIIARSTVKQLRKNVLAKCYGGDISRKKKLLQKQKEGKKRMKQIGNVELPQEAFLAILHVGKDNK | 5.44 ± 0.33 | 5.46 ± 0.92 | 5.24 ± 0.14 | 5.28 ± 0.43 | 4.79 ± 0.27 | 3.03 ± 0.18 | 5.49 ± 0.072 | 10.2 ± 0.72 | 4.754 ± 0.043 | 8.74 ± 0.49 | 5.851 ± 0.057 | 12.16 ± 0.1
MKNIRYIDKKDVENLIENKISDDVIIFLSGPTSQKTPLSVLRTKDIIAVNGSAQYLLSNNIVPFIYVLTDVRFLHQRRDDFYKFSQRSRYTIVNVDVYEHASKEDKLYILQNCLVLRSFYRREKGGFIKKIKFNILRQIHKELLISVPLSKKGRLVGFCKDISLGYCSCHTIAFAAIQIAYSLKYARIICSGLDLTGSCSRFYDENKNPMPSELSRDLFKILPFFRFMHDNVKDINIYNLSDDTAISYDVIPFIKLQDISAEESKDMTRKKMQYRTSTDSYAN | 5.01 ± 0.085 | 4.65 ± 0.19 | – | 3.32 ± 0.14 | 3.714 ± 0.0057 | 1.67 ± 0.44 | 1.52 ± 0.34 | 1.73 ± 0.45 | 3.52 | 6.11 ± 0.77 | 1.84 ± 0.14 | 4.15 ± 0.71
MKNKADNKKRNFLTHSEIESLLKAANTGPHAARNYCLTLLCFIHGFRASEICRLRISDIDLKAKCIYIHRLKKGFSTTHPLLNKEVQALKNWLSIRTSYPHAESEWVFLSRKGNPLSRQQFYHIISTSGGNAGLSLEIHPHMLRHSCGFALANMGIDTRLIQDYLGHRNIRHTVWYTASNAGRFYGIWDRARGRQRHAVL [P0ADH5] | 5.33 ± 0.87 | – | – | 1.9 | 0.718 ± 0.15 | – | – | – | – | 0.988 | – | –
MKNKLPPFIEIYRALIATPSISATEEALDQSNADLITLLADWFKDLGFNVEVQPVPGTRNKFNMLASIGQGAGGLLLAGHTDTVPFDDGRWTRDPFTLTEHDGKLYGLGTADMKGFFAFILDALRDVDVTKLKKPLYILATADEETSMAGARYFAETTALRPDCAIIGEPTSLQPVRAHKGHISNAIRIQGQSGHSSDPARGVNAIELMHDAIGHILQLRDNLKERYHYEAFTVPYPTLNLGHIHGGDASNRICACCELHMDIRPLPGMTLNELNGLLNDALAPVSERWPGRLTVDELHPPIPGYECPPNHQLVEVVEKLLGAKTEVVNYCTEAPFIQTLCPTLVLGPGSINQAHQPDEYLETRFIKPTRELITQVIHHFCWH | 4.97 ± 0.62 | 4.73 ± 0.34 | 4.636 ± 0.017 | 4.68 ± 0.19 | 4.29 ± 0.23 | 3.27 ± 0.46 | 5.46 ± 0.24 | 10.9 ± 2.2 | 4.68 ± 0.058 | 7.38 ± 0.21 | 5.95 ± 0.067 | 11 ± 0.37
MKNWKTLLLGIAMIANTSFAAPQVVDKVAAVVNNGVVLESDVDGLMQSVKLNAAQARQQLPDDATLRHQIMERLIMDQIILQMGQKMGVKISDEQLDQAIANIAKQNNMTLDQMRSRLAYDGLNYNTYRNQIRKEMIISEVRNNEVRRRITILPQEVESLAQQVGNQNDASTELNLSHILIPLPENPTSDQVNEAESQARAIVDQARNGADFGKLAIAHSADQQALNGGQMGWGRIQELPGIFAQALSTAKKGDIVGPIRSGVGFHILKVNDLRGESKNISVTEVHARHILLKPSPIMTDEQARVKLEQIAADIKSGKTTFAAAAKEFSQDPGSANQGGDLGWATPDIFDPAFRDALTRLNKGQMSAPVHSSFGWHLIELLDTRNVDKTDAAQKDRAYRMLMNRKFSEEAASWMQEQRASAYVKILSN [P0ABZ6] | 5.66 ± 0.16 | 6.39 ± 1.2 | 6.52 ± 0.36 | 6.49 ± 0.28 | 5.7 ± 0.35 | 2.97 ± 0.098 | 6.4 ± 0.42 | 11.7 ± 0.87 | 6.23 ± 0.57 | 13.1 ± 0.99 | 5.78 ± 0.24 | 11.7 ± 0.52
MKPENKLPVLDLISAEMKTVVNTLQPDLPPWPATGTIAEQRQYYTLERRFWNAGAPEMATRAYMVPTKYGQVETRLFCPQPDSPATLFYLHGGGFILGNLDTHDRIMRLLASYSQCTVIGIDYTLSPEARFPQAIEEIVAACCYFHQQAEDYQINMSRIGFAGDSAGAMLALASALWLRDKQIDCGKVAGVLLWYGLYGLRDSVTRRLLGGVWDGLTQQDLQMYEEAYLSNDADRESPYYCLFNNDLTREVPPCFIAGAEFDPLLDDSRLLYQTLAAHQQPCEFKLYPGTLHAFLHYSRMMKTADEALRDGAQFFTAQL | – | – | – | – | – | 3.18 ± 0.17 | 5.349 ± 0.029 | 8.02 ± 2.3 | – | 11.6 | 5.69 ± 1.1 | 10.9 ± 1.4
